Laboratory results: patent US20170137467A1 (CHROMOTEK, published 2017)
Numbering of substitutions follows the chain as printed. Blank lines part the entries; values can stand above or below the binder they belong to. Square brackets hold non-standard residues; d marks the D form. GABA = NCCCC(=O)O

How the values were obtained:
Test in all cases: positional peptide library pulldown on immobilised Nb, LC-MS of supernatant; signal ratio to control GFP-Nb (1 = not captured, near 0 = captured)
[1] = target: T1, BC2T D2W
T1 construct: positional scanning library member
T1 peptide: Ac-PWRKAAVSHWQQ-NH2
In short: (§1)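 Unbound peptide left in supernatant after 1 h pulldown in PBS/0.01% CHAPS measured by reversed-phase LC-MS (8–30% eluent B gradient, 20 min).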

[2] = target: T2, BC2T V7E
T2 construct: positional scanning library member
T2 peptide: Ac-PDRKAAESHWQQ-NH2
In short: as §1

[3] = target: T3, BC2T K4S
T3 construct: positional scanning library member
T3 peptide: Ac-PDRSAAVSHWQQ-NH2
In short: as §1

[4] = target: T4, BC2T D2P
T4 construct: positional scanning library member
T4 peptide: Ac-PPRKAAVSHWQQ-NH2
In short: as §1

[5] = target: T5, BC2T P1H
T5 construct: positional scanning library member
T5 peptide: Ac-HDRKAAVSHWQQ-NH2
In short: as §1

[6] = target: T6, BC2T A5S
T6 construct: positional scanning library member
T6 peptide: Ac-PDRKSAVSHWQQ-NH2
In short: as §1

[7] = target: T7, BC2T R3K
T7 construct: positional scanning library member
T7 peptide: Ac-PDKKAAVSHWQQ-NH2
In short: as §1

[8] = target: T8, BC2T R3F
T8 construct: positional scanning library member
T8 peptide: Ac-PDFKAAVSHWQQ-NH2
In short: as §1

[9] = target: T9, BC2T A5E
T9 construct: positional scanning library member
T9 peptide: Ac-PDRKEAVSHWQQ-NH2
In short: as §1

[10] = target: T10, BC2T D2N
T10 construct: positional scanning library member
T10 peptide: Ac-PNRKAAVSHWQQ-NH2
In short: as §1

[11] = target: T11, BC2T A6N
T11 construct: positional scanning library member
T11 peptide: Ac-PDRKANVSHWQQ-NH2
In short: as §1

[12] = target: T12, BC2T P1Y
T12 construct: positional scanning library member
T12 peptide: Ac-YDRKAAVSHWQQ-NH2
In short: as §1

[13] = target: T13, BC2T V7W
T13 construct: positional scanning library member
T13 peptide: Ac-PDRKAAWSHWQQ-NH2
In short: as §1

[14] = target: T14, BC2T D2C(Abu) (SMILES …)
T14 construct: positional scanning library member
T14 peptide: Ac-P[GABA]RKAAVSHWQQ-NH2
In short: as §1

[15] = target: T15, BC2T V7D
T15 construct: positional scanning library member
T15 peptide: Ac-PDRKAADSHWQQ-NH2
In short: as §1

[16] = target: T16, BC2T K4Q
T16 construct: positional scanning library member
T16 peptide: Ac-PDRQAAVSHWQQ-NH2
In short: as §1

[17] = target: T17, BC2T D2R
T17 construct: positional scanning library member
T17 peptide: Ac-PRRKAAVSHWQQ-NH2
In short: as §1

[18] = target: T18, BC2T P1T
T18 construct: positional scanning library member
T18 peptide: Ac-TDRKAAVSHWQQ-NH2
In short: as §1

[19] = target: T19, BC2T H9E
T19 construct: positional scanning library member
T19 peptide: Ac-PDRKAAVSEWQQ-NH2
In short: as §1

[20] = target: T20, BC2T H9D
T20 construct: positional scanning library member
T20 peptide: Ac-PDRKAAVSDWQQ-NH2
In short: as §1

[21] = target: T21, BC2T Q12D
T21 construct: positional scanning library member
T21 peptide: Ac-PDRKAAVSHWQD-NH2
In short: as §1

[22] = target: T22, BC2T Q11E
T22 construct: positional scanning library member
T22 peptide: Ac-PDRKAAVSHWEQ-NH2
In short: as §1

ratio [1]: 0.1
ratio [2]: 0.9
ratio [3]: 0.6
ratio [4]: 0.8
ratio [5]: 0.4
ratio [6]: 0.2
ratio [7]: 0.3
ratio [8]: 1
ratio [9]: 0.8
ratio [10]: 0.2
ratio [11]: 1
ratio [12]: 0.2
ratio [13]: 0.2
ratio [14]: 0.2
ratio [15]: 0.9
ratio [16]: 0.2
ratio [17]: 0.1
ratio [18]: 0.6
B1: BC2-NbR106E (VHH)
VHH: QVQLVESGGGLVQPGGSLTLSCTASGFTLDHYDIGWFRQAPGKEREGVSCINNSDDDTYYADSVKGRFTIFMDNAKDTVYLQMNSLKPEDTAIYYCAEARGCKRGEYEYDFWGQGTQVTVSS
notes: headlock mutant of BC2-Nb; immobilised on beads in this assay

B2: BC2 nanobody (VHH)
VHH: B1 VHH with E106R
notes: immobilised on beads in this assay; also called BC2-Nb; BC2 nanotrap (immobilised)
ratio [19]: 0.2
ratio [20]: 0.1
ratio [21]: 0.6
ratio [22]: 0.1
